B1: Hairpin Ribozyme (parent)
chain: GUCCUCUUUCACGUGCGCGUGAAAGAGAGAAGUGAACCAGAGAAACACACGUUGUGGUAUAUUACCUGGUA

The variants in the data set derive from B1. The data set can be described thus: self-cleavage, relative activity (ratio to wild type); higher = more cleavage; co-transcriptional.
Consider GUCCUCUUUCACGUGCGCGUGUAAGAGAGAAGUGAACCAGAGAAACACACGUUGUGGUAUAUUACCUGGUA, for which the self-cleavage was 0.864.
Then GUCCUCUUUCACGUGCGCGUGGAAGAGAGAAGUGAACCAGAGAAACACACGUUGGGGUAUAUUACCUGGUA, with 0.33.
The value for GUCCUCUUUCACGUGCGCGUGGAAGAGAGAAGUGAACCAGAGAAACACACGUUGUGGUAUAUUACGUGGUA was 0.302.
Then GUCCUCUUUCACGUGCGCGUGUAAGAGAGAAGUGAACCAGAGAAAAACACGUUGUGGUAUAUUACCUGGUA, with 0.187; and GUCCUCUUUCACGUGCGCGUGUAAGAGAGAAGUGAACCAGAGAAACACACGUUGUGGUAUAUUAACUGGUA, with 0.903.
For the variant GUCCUCUUUCACGUGCGCGUGUAAGAGAGAAGUGAACCAGAGAAACACACGUUGUGGUAUAUUAGCUGGUA, the self-cleavage is 0.266.
In the case of GUCCUCUUUCACGUGCGCGUGUAAGAGAGAAGUGAACCAGAGAAACACACGUUGUGGUAUAUUAUCUGGUA, the self-cleavage stood at 0.229.
The value for GUCCUCUUUCACGUGCGCGUGGAAGAGAGAAGUGAACCAGAGAAACACACGUUGUGGUAUACUACCUGGUA was 0.276; that for GUCCUCUUUCACGUGCGCGUGGAAGAGAGAAAUGAACCAGAGAAACACACGUUGUGGUAUAUUACCUGGUA was 0.0872.
The value for GUCCUCUUUCACGUGCGCGUGGAAGAGAGAAUUGAACCAGAGAAACACACGUUGUGGUAUAUUACCUGGUA was 0.0605.
Then GUCCUCUUUCACGUGCGCGUGUAAGAGAGAAGUGAACCAGAGAAACACACGUUGUGGUAUAUUCCCUGGUA, with 0.113; and GUCCUCUUUCACGUGCGCGUGGAAGAGAGAAGUGAACCAGAGAAACACACGUUCUGGUAUAUUACCUGGUA, with 0.35.
As to GUCCUCUUUCACGUGCGCGUGUAAGAGAGAAGUGAACCAGAGAAACGCACGUUGUGGUAUAUUACCUGGUA, the self-cleavage came to 0.115.
Regarding GUCCUCUUUCACGUGCGCGUGGAAGAGAGAAGUGAACCAGAGAAACACACGUUGUGGUAUGUUACCUGGUA, the self-cleavage was determined as 0.285.
Then GUCCUCUUUCACGUGCGCGUGUAAAAGAGAAGUGAACCAGAGAAACACACGUUGUGGUAUAUUACCUGGUA, with 0.149.
For GUCCUCUUUCACGUGCGCGUGUAACAGAGAAGUGAACCAGAGAAACACACGUUGUGGUAUAUUACCUGGUA, the self-cleavage amounted to 0.143.
The value for GUCCUCUUUCACGUGCGCGUGGAAGAGAGAAGUGAACCAGAGAAACACACGUUGUGGUAAAUUACCUGGUA was 0.949.
Then GUCCUCUUUCACGUGCGCGUGGAAGAGAGAAGUCAACCAGAGAAACACACGUUGUGGUAUAUUACCUGGUA, with 1.52; and GUCCUCUUUCACGUGCGCGUGGAAGAGAGAAGUAAACCAGAGAAACACACGUUGUGGUAUAUUACCUGGUA, with 0.987; and GUCCUCUUUCACGUGCGCGUGGAAGAGAGAAGUUAACCAGAGAAACACACGUUGUGGUAUAUUACCUGGUA, with 1.22.
The value for GUCCUCUUUCACGUGCGCGUGGAAGAGAGAAGUGAACCAGAGAAACACACGUUGUGGUAUAUUACCUGAUA was 0.385; that for GUCCUCUUUCACGUGCGCGUGGAAGAGAGAAGUGAACCAGAGAAACACACGUUGUGGUAUAUUACCUGUUA was 0.238.
For GUCCUCUUUCACGUGCGCGUGGAAGAGAGAAGUGAACCAGAGAAACACACGUUGUGCUAUAUUACCUGGUA, the self-cleavage stood at 0.141.
Then GUCCUCUUUCACGUGCGCGUGUAAGAGAGAAGUGAACCAGAGAAACACGCGUUGUGGUAUAUUACCUGGUA, with 0.488; and GUCCUCUUUCACGUGCGCGUGUAAGAGAGAAGUGAACCAGAGAAACACCCGUUGUGGUAUAUUACCUGGUA, with 0.146; and GUCCUCUUUCACGUGCGCGUGGAAGAGAGAAGUGAACCAGAGAAACUCACGUUGUGGUAUAUUACCUGGUA, with 0.102.
In the case of GUCCUCUUUCACGUGCGCGUGUAAGAGAGAAGUGAACCAGAGAAACACACGUUGUGGUAUAUUACCUGGUU, the self-cleavage is 0.747.
Then GUCCUCUUUCACGUGCGCGUGUAAGAGAGAAGUGAACCAGAGAAACACACGUUGUGGUAUAUUACCUGGUG, with 0.791; and GUCCUCUUUCACGUGCGCGUGUAAGCGAGAAGUGAACCAGAGAAACACACGUUGUGGUAUAUUACCUGGUA, with 0.479; and GUCCUCUUUCACGUGCGCGUGUAAGUGAGAAGUGAACCAGAGAAACACACGUUGUGGUAUAUUACCUGGUA, with 0.907.
Then GUCCUCUUUCACGUGCGCGUGUAAGAGAGAAGUGAACCAGAGAAACACACGUUGUGGUUUAUUACCUGGUA, with 0.143; and GUCCUCUUUCACGUGCGCGUGUAAGAUAGAAGUGAACCAGAGAAACACACGUUGUGGUAUAUUACCUGGUA, with 0.187; and GUCCUCUUUCACGUGCGCGUGUAAGAAAGAAGUGAACCAGAGAAACACACGUUGUGGUAUAUUACCUGGUA, with 0.283.
The value for GUCCUCUUUCACGUGCGCGUGUAAGACAGAAGUGAACCAGAGAAACACACGUUGUGGUAUAUUACCUGGUA was 0.178.
Regarding GUCCUCUUUCACGUGCGCGUGGAAGAUAGAAGUGAACCAGAGAAACACACGUUGUGGUAUAUUACCUGGUA, the self-cleavage worked out at 0.262.
Turning to GUCCUCUUUCACGUGCGCGUGGAAGACAGAAGUGAACCAGAGAAACACACGUUGUGGUAUAUUACCUGGUA, the self-cleavage turned out to be 0.161.
Then GUCCUCUUUCACGUGCGCGUGGAAGAGAGAAGUGAACCAGAGAAACACACGUUGUGGUAUAUUCCCUGGUA, with 0.22; and GUCCUCUUUCACGUGCGCGUGUCAGAGAGAAGUGAACCAGAGAAACACACGUUGUGGUAUAUUACCUGGUA, with 0.733.

(Values after the RNAGym collection of RNA variant scans (doi:10.7554/elife.80360).)
